Read-outs that look alike come from different tables or passages of the source. *1 amine or outer side, *2 acyl side, *3 side chain or, on linkers, in order; H or OH if unused. Bridges are numbered along the chain shown (N, C = ends). Side-chain parts run from the residue outwards. [ ]: non-standard residue; d: D form. The star is where a group is joined. γGlu = O=C(O)[C@H](CCC(=O)[*:2])N[*:1]; Stearoyl = CCCCCCCCCCCCCCCCCC(=O)*; AEEA = NCCOCCOCC(=O)O; Aib = CC(C)(N)C(=O)O

For assay [1], the target named is T1, Human GLP-1 receptor (human, UniProt P43220).
Assay [2] addresses T2, Human glucagon receptor (human, UniProt P47871).
Assay [3] has as its target T1, Human GLP-1 receptor. In words: cell-based or functional assay.
In assay [4] the target is T2, Human glucagon receptor. In words: cell-based or functional assay.

On to MEDI0382 (peptide), for which the EC50(pM), CRE-driven luciferase activity with Human GLP-1 receptor [1] was under 10 pM; in the assay with Human glucagon receptor [2], 10 to 100 pM.

B1: Compound 38 (peptide)
peptide: H-H[Aib]QGTFTSDK([AEEA-AEEA-γGlu-Stearoyl])SKYLDDRRAKDFVQWLMNTK-OH
modifications: bridge 16-20; not fully specified (bridges); printed as H-HAibQGTFTSDZSKYLDDRRAKDFVQWLMNTK-OH
For the molecule B1, the “EC50(pM), CRE-driven luciferase activity” value in the assay with Human GLP-1 receptor [3] and in the assay with Human glucagon receptor [4] was under 10 pM each time.

The values above are taken from patent US20200354425A1 (DONG-A ST CO., LTD., published 2020).
